{"source": "paper PMC3323580", "experiment_in_all_cases": "SPR; C3b (1620 RU), C4b (1518 RU) and C1q (2125 RU) amine-coupled on three flow cells of one CM5 chip; CR1 fragments flowed at 30 µl/min, Biacore T100, 25°C, HBS-EP pH 7.4 (10 mM Hepes, 150 mM saline, 3 mM EDTA, 0.05% polysorbate 20); steady-state fit, one-to-one model; duplicates", "key": {"[1]": {"target": "C4b, complement-activation fragment of C4"}, "[2]": {"target": "C3b, complement-activation fragment of C3"}, "[3]": {"target": "C1q, classical complement pathway protein (UniProt P02745)", "sequence (P02745 23-245, chain 1 of 3)": "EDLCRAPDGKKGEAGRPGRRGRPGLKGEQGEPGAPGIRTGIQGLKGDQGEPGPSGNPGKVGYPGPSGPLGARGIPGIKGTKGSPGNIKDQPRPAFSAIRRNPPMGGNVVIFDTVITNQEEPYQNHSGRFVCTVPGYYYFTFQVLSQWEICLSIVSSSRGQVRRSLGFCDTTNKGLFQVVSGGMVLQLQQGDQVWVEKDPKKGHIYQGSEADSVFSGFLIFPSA", "sequence (P02746 28-253, chain 2 of 3, further chain)": "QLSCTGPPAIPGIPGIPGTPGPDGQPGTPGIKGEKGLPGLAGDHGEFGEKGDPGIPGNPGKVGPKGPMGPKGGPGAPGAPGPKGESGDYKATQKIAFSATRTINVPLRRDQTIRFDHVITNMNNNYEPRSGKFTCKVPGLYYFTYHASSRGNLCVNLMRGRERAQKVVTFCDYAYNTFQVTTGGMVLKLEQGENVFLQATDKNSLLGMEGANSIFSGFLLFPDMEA", "sequence (P02747 29-245, chain 3 of 3, further chain)": "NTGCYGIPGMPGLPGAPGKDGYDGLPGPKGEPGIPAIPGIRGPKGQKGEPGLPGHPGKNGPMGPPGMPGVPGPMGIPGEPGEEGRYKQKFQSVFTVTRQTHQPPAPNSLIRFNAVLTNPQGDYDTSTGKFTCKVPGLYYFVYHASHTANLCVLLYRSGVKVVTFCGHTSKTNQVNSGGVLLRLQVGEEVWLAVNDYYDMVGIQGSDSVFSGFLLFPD"}}}
{"substance": "CR1 15–17 (site 2), complement receptor-type 1 CCPs 15–17 (domain or fragment)", "values": [{"measurement": "Kd", "setting": "[1]", "value": 3.2, "unit": "µM"}, {"measurement": "Kd", "setting": "[2]", "value": 1060, "unit": "nM"}, {"measurement": "Kd", "setting": "[3]", "value": 0.82, "unit": "µM"}]}
{"substance": "CR1 15–25(ER), complement receptor-type 1 CCPs 15–25, Glu1590/Arg1601 variant (domain or fragment)", "values": [{"measurement": "Kd", "setting": "[1]", "value": 5.3, "unit": "µM"}, {"measurement": "Kd", "setting": "[2]", "value": 1090, "unit": "nM"}, {"measurement": "Kd", "setting": "[3]", "value": 5.7, "unit": "µM"}]}
{"substance": "CR1 15–25(KG), complement receptor-type 1 CCPs 15–25, Lys1590/Gly1601 variant (domain or fragment)", "values": [{"measurement": "Kd", "setting": "[1]", "value": 5.2, "unit": "µM"}, {"measurement": "Kd", "setting": "[2]", "value": 1050, "unit": "nM"}, {"measurement": "Kd", "setting": "[3]", "value": 5.5, "unit": "µM"}]}
{"substance": "soluble CR1 (sCR1), full-length ectodomain of complement receptor-type 1 (from UniProt P17927 42-1971)", "values": [{"measurement": "Kd", "setting": "[1]", "value": 0.91, "unit": "µM"}, {"measurement": "Kd", "setting": "[2]", "value": 530, "unit": "nM"}]}
{"substance": "CR1 15–25(KR), complement receptor-type 1 CCPs 15–25, Lys1590/Arg1601 variant (domain or fragment)", "values": [{"measurement": "Kd", "setting": "[1]", "value": 5.1, "unit": "µM"}, {"measurement": "Kd", "setting": "[2]", "value": 990, "unit": "nM"}, {"measurement": "Kd", "setting": "[3]", "value": 5.7, "unit": "µM"}]}
{"substance": "CR1 1–3 (site 1), complement receptor-type 1 CCPs 1–3 (domain or fragment)", "values": [{"measurement": "Kd", "setting": "[1]", "value": 11.2, "unit": "µM"}, {"measurement": "Kd", "setting": "[2]", "value": 38000, "unit": "nM"}, {"measurement": "Kd", "setting": "[3]", "value": 30.9, "unit": "µM"}]}
{"substance": "CR1 15–25(EG), complement receptor-type 1 CCPs 15–25, Glu1590/Gly1601 variant (domain or fragment)", "values": [{"measurement": "Kd", "setting": "[1]", "value": 5, "unit": "µM"}, {"measurement": "Kd", "setting": "[2]", "value": 800, "unit": "nM"}, {"measurement": "Kd", "setting": "[3]", "value": 5.1, "unit": "µM"}]}
